Laboratory results: US20170190753A1 (LABORATOIRE FRANCAIS DU FRACTIONNEMENT ET DES …, published 2017)

B1: pCEP4-1NT11-16CT20 (other)
chain: EDCNELPPRRNTEILTGSWSDQTYPEGTQAIYKCRPGYRSLGNVIMVCRKGEWVALNPLRKCQKRPCGHPGDTPFGTFTLTGGNVFEYGVKAVYTCNEGYQLLGEINYRECDTDGWTNDIPICEVVKCLPVTAPENGKIVSSAMEPDREYHFGQAVRFVCNSGYKIEGDEEMHCSDDGFWSKEKPKCVEISCKSPDVINGSPISQKIIYKENERFQYKCNMGYEYSERGDAVCTESGWRPLPSCEEKSCDNPYIPNGDYSPLRIKHRTGDEITYQCRNGFYPATRGNTAKCTSTGWIPAPRCTLKPCDYPDIKHGGLYHENMRRPYFPVAVGKYYSYYCDEHFETPSGSYWDHIHCTQDGWSPAVPCLRKCYFPYLENGYNQNHGRKFVQGKSIDVACHPGYALPKAQTTVTCMENGWSPTPRCIRVKTCSKSSIDIENGFISESQYTYALKEKAKYQCKLGYVTADGETSGSITCGKDGWSAQPTCIKSCDIPVFMNARTKNDFTWFKLNDTLDYECHDGYESNTGSTTGSIVCGYNGWSDLPICYERECELPKIDVHLVPDRKKDQYKVGEVLKFSCKPGFTIVGPNSVQCYHFGLSPDLPICKEQVQSCGPPPELLNGNVKEKTKEEYGHSEVVEYYCNPRFLMKGPNKIQCVDGEWTTLPVCIVEESTGASGCKSPPEISHGVVAHMSDSYQYGEEVTYKCFEGFGIDGPAIAKCLGEKWSHPPSCIKTDCLSLPSFENAIPMGEKKDVYKAGEQVTYTCATYYKMDGASNVTCINSRWTGRPTCRDTSCVNPPTVQNAYIVSRQMSKYPSGERVRYQCRSPYEMFGDEEVMCLNGNWTEPPQCKDSTGKCGPPPPIDNGDITSFPLSVYAPASSVEYQCQNLYQLEGNKRITCRNGQWSEPPKCLHPCVISREIMENYNIALRWTAKQKLYSRTGESVEFVCKRGYRLSSRSHTLRTTCWDGKLEYPTCAKRGGSGHHHHHH
B2: pCEP4-1NT7-16CT20 (other)
chain: EDCNELPPRRNTEILTGSWSDQTYPEGTQAIYKCRPGYRSLGNVIMVCRKGEWVALNPLRKCQKRPCGHPGDTPFGTFTLTGGNVFEYGVKAVYTCNEGYQLLGEINYRECDTDGWTNDIPICEVVKCLPVTAPENGKIVSSAMEPDREYHFGQAVRFVCNSGYKIEGDEEMHCSDDGFWSKEKPKCVEISCKSPDVINGSPISQKIIYKENERFQYKCNMGYEYSERGDAVCTESGWRPLPSCEEKSCDNPYIPNGDYSPLRIKHRTGDEITYQCRNGFYPATRGNTAKCTSTGWIPAPRCTLKPCDYPDIKHGGLYHENMRRPYFPVAVGKYYSYYCDEHFETPSGSYWDHIHCTQDGWSPAVPCLRKCYFPYLENGYNQNYGRKFVQGKSIDVACHPGYALPKAQTTVTCMENGWSPTPRCIRVKTGASGCKSPPEISHGVVAHMSDSYQYGEEVTYKCFEGFGIDGPAIAKCLGEKWSHPPSCIKTDCLSLPSFENAIPMGEKKDVYKAGEQVTYTCATYYKMDGASNVTCINSRWTGRPTCRDTSCVNPPTVQNAYIVSRQMSKYPSGERVRYQCRSPYEMFGDEEVMCLNGNWTEPPQCKDSTGKCGPPPPIDNGDITSFPLSVYAPASSVEYQCQNLYQLEGNKRITCRNGQWSEPPKCLHPCVISREIMENYNIALRWTAKQKLYSRTGESVEFVCKRGYRLSSRSHTLRTTCWDGKLEYPTCAKRGGSGHHHHHH
B3: pCEP4-1NT11-15CT20 (other)
chain: EDCNELPPRRNTEILTGSWSDQTYPEGTQAIYKCRPGYRSLGNVIMVCRKGEWVALNPLRKCQKRPCGHPGDTPFGTFTLTGGNVFEYGVKAVYTCNEGYQLLGEINYRECDTDGWTNDIPICEVVKCLPVTAPENGKIVSSAMEPDREYHFGQAVRFVCNSGYKIEGDEEMHCSDDGFWSKEKPKCVEISCKSPDVINGSPISQKIIYKENERFQYKCNMGYEYSERGDAVCTESGWRPLPSCEEKSCDNPYIPNGDYSPLRIKHRTGDEITYQCRNGFYPATRGNTAKCTSTGWIPAPRCTLKPCDYPDIKHGGLYHENMRRPYFPVAVGKYYSYYCDEHFETPSGSYWDHIHCTQDGWSPAVPCLRKCYFPYLENGYNQNHGRKFVQGKSIDVACHPGYALPKAQTTVTCMENGWSPTPRCIRVKTCSKSSIDIENGFISESQYTYALKEKAKYQCKLGYVTADGETSGSITCGKDGWSAQPTCIKSCDIPVFMNARTKNDFTWFKLNDTLDYECHDGYESNTGSTTGSIVCGYNGWSDLPICYERECELPKIDVHLVPDRKKDQYKVGEVLKFSCKPGFTIVGPNSVQCYHFGLSPDLPICKEQVQSCGPPPELLNGNVKEKTKEEYGHSEVVEYYCNPRFLMKGPNKIQCVDGEWTTLPVCIVEESTGASGCSQPPQIEHGTINSSRSSQESYAHGTKLSYTCEGGFRISEENETTCYMGKWSSPPQCEGLPCKSPPEISHGVVAHMSDSYQYGEEVTYKCFEGFGIDGPAIAKCLGEKWSHPPSCIKTDCLSLPSFENAIPMGEKKDVYKAGEQVTYTCATYYKMDGASNVTCINSRWTGRPTCRDTSCVNPPTVQNAYIVSRQMSKYPSGERVRYQCRSPYEMFGDEEVMCLNGNWTEPPQCKDSTGKCGPPPPIDNGDITSFPLSVYAPASSVEYQCQNLYQLEGNKRITCRNGQWSEPPKCLHPCVISREIMENYNIALRWTAKQKLYSRTGESVEFVCKRGYRLSSRSHTLRTTCWDGKLEYPTCAKRGGSGHHHHHH
B4: pCEP4-1NT4-14CT20 (other)
chain: EDCNELPPRRNTEILTGSWSDQTYPEGTQAIYKCRPGYRSLGNVIMVCRKGEWVALNPLRKCQKRPCGHPGDTPFGTFTLTGGNVFEYGVKAVYTCNEGYQLLGEINYRECDTDGWTNDIPICEVVKCLPVTAPENGKIVSSAMEPDREYHFGQAVRFVCNSGYKIEGDEEMHCSDDGFWSKEKPKCVEISCKSPDVINGSPISQKIIYKENERFQYKCNMGYEYSERGDAVCTESGWRPLPSCEEKSGASGCPPPPQIPNSHNMTTTLNYRDGEKVSVLCQENYLIQEGEEITCKDGRWQSIPLCVEKIPCSQPPQIEHGTINSSRSSQESYAHGTKLSYTCEGGFRISEENETTCYMGKWSSPPQCEGLPCKSPPEISHGVVAHMSDSYQYGEEVTYKCFEGFGIDGPAIAKCLGEKWSHPPSCIKTDCLSLPSFENAIPMGEKKDVYKAGEQVTYTCATYYKMDGASNVTCINSRWTGRPTCRDTSCVNPPTVQNAYIVSRQMSKYPSGERVRYQCRSPYEMFGDEEVMCLNGNWTEPPQCKDSTGKCGPPPPIDNGDITSFPLSVYAPASSVEYQCQNLYQLEGNKRITCRNGQWSEPPKCLHPCVISREIMENYNIALRWTAKQKLYSRTGESVEFVCKRGYRLSSRSHTLRTTCWDGKLEYPTCAKRGGSGHHHHHH
B5: pCEP4-1NT7-19CT20 (other)
chain: EDCNELPPRRNTEILTGSWSDQTYPEGTQAIYKCRPGYRSLGNVIMVCRKGEWVALNPLRKCQKRPCGHPGDTPFGTFTLTGGNVFEYGVKAVYTCNEGYQLLGEINYRECDTDGWTNDIPICEVVKCLPVTAPENGKIVSSAMEPDREYHFGQAVRFVCNSGYKIEGDEEMHCSDDGFWSKEKPKCVEISCKSPDVINGSPISQKIIYKENERFQYKCNMGYEYSERGDAVCTESGWRPLPSCEEKSCDNPYIPNGDYSPLRIKHRTGDEITYQCRNGFYPATRGNTAKCTSTGWIPAPRCTLKPCDYPDIKHGGLYHENMRRPYFPVAVGKYYSYYCDEHFETPSGSYWDHIHCTQDGWSPAVPCLRKCYFPYLENGYNQNYGRKFVQGKSIDVACHPGYALPKAQTTVTCMENGWSPTPRCIRVKTGASGCGPPPPIDNGDITSFPLSVYAPASSVEYQCQNLYQLEGNKRITCRNGQWSEPPKCLHPCVISREIMENYNIALRWTAKQKLYSRTGESVEFVCKRGYRLSSRSHTLRTTCWDGKLEYPTCAKRGGSGHHHHHH
B6: pCEP4-1NT10-14CT20 (other)
chain: EDCNELPPRRNTEILTGSWSDQTYPEGTQAIYKCRPGYRSLGNVIMVCRKGEWVALNPLRKCQKRPCGHPGDTPFGTFTLTGGNVFEYGVKAVYTCNEGYQLLGEINYRECDTDGWTNDIPICEVVKCLPVTAPENGKIVSSAMEPDREYHFGQAVRFVCNSGYKIEGDEEMHCSDDGFWSKEKPKCVEISCKSPDVINGSPISQKIIYKENERFQYKCNMGYEYSERGDAVCTESGWRPLPSCEEKSCDNPYIPNGDYSPLRIKHRTGDEITYQCRNGFYPATRGNTAKCTSTGWIPAPRCTLKPCDYPDIKHGGLYHENMRRPYFPVAVGKYYSYYCDEHFETPSGSYWDHIHCTQDGWSPAVPCLRKCYFPYLENGYNQNHGRKFVQGKSIDVACHPGYALPKAQTTVTCMENGWSPTPRCIRVKTCSKSSIDIENGFISESQYTYALKEKAKYQCKLGYVTADGETSGSITCGKDGWSAQPTCIKSCDIPVFMNARTKNDFTWFKLNDTLDYECHDGYESNTGSTTGSIVCGYNGWSDLPICYERECELPKIDVHLVPDRKKDQYKVGEVLKFSCKPGFTIVGPNSVQCYHFGLSPDLPICKEQVQSGASGCPPPPQIPNSHNMTTTLNYRDGEKVSVLCQENYLIQEGEEITCKDGRWQSIPLCVEKIPCSQPPQIEHGTINSSRSSQESYAHGTKLSYTCEGGFRISEENETTCYMGKWSSPPQCEGLPCKSPPEISHGVVAHMSDSYQYGEEVTYKCFEGFGIDGPAIAKCLGEKWSHPPSCIKTDCLSLPSFENAIPMGEKKDVYKAGEQVTYTCATYYKMDGASNVTCINSRWTGRPTCRDTSCVNPPTVQNAYIVSRQMSKYPSGERVRYQCRSPYEMFGDEEVMCLNGNWTEPPQCKDSTGKCGPPPPIDNGDITSFPLSVYAPASSVEYQCQNLYQLEGNKRITCRNGQWSEPPKCLHPCVISREIMENYNIALRWTAKQKLYSRTGESVEFVCKRGYRLSSRSHTLRTTCWDGKLEYPTCAKRGGSGHHHHHH

molecular target: C3 convertase complex (UniProt P01024 23-1663; P00751 260-764); assay: cell-based or functional assay
Sequence (P01024 23-1663, chain 1 of 2): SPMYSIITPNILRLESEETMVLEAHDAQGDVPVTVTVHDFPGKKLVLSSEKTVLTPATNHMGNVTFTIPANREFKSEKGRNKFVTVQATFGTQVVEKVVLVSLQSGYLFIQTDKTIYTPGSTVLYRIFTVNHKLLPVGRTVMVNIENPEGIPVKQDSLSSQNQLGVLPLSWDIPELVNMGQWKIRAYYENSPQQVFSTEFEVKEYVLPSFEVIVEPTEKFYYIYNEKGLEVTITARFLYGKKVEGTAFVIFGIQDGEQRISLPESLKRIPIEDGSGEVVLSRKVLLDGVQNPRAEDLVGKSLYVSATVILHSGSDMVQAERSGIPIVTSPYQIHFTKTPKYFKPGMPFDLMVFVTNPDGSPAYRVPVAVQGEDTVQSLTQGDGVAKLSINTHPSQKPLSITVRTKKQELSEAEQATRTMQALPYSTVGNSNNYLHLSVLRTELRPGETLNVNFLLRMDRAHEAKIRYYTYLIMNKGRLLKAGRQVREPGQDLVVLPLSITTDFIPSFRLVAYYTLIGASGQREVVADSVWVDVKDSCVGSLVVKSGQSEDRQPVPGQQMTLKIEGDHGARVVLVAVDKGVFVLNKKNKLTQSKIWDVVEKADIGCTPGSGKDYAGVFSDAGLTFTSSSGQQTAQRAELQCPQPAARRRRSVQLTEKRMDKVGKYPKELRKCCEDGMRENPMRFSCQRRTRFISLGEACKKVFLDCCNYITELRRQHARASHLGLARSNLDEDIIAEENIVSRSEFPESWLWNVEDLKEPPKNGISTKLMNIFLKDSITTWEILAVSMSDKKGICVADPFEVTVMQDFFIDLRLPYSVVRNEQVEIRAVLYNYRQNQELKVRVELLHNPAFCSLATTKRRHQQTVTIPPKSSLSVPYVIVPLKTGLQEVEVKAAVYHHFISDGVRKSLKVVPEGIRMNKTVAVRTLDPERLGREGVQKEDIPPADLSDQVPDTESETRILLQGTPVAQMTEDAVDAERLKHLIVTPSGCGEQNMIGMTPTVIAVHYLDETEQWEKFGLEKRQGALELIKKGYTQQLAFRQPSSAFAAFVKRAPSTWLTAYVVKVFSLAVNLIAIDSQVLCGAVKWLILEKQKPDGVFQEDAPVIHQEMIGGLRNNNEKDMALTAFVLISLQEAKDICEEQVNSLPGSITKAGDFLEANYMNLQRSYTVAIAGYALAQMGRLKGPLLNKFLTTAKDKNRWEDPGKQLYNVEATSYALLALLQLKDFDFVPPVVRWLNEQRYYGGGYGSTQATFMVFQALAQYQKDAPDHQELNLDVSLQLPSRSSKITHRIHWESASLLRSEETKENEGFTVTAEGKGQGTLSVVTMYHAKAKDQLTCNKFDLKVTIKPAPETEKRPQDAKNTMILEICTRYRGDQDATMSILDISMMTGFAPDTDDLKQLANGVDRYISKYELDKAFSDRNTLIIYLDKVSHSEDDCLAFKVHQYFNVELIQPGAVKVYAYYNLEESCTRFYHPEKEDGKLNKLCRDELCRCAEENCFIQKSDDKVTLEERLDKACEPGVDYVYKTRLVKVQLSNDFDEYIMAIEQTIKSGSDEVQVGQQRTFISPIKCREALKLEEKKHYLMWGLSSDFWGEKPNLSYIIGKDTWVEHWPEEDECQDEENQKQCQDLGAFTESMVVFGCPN
Sequence (P00751 260-764, chain 2 of 2): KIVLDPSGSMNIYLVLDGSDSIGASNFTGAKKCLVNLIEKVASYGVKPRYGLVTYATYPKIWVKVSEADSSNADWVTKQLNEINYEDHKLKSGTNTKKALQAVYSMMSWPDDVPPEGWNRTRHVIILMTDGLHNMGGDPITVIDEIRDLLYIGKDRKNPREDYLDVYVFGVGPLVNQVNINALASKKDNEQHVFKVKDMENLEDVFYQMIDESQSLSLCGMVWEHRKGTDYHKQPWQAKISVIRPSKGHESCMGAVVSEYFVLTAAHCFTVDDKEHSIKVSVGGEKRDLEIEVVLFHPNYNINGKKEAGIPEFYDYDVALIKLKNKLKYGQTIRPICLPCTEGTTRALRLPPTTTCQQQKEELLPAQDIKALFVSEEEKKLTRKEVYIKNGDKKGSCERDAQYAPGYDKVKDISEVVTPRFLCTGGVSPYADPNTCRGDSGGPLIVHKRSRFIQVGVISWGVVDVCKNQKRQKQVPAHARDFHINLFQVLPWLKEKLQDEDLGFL
Wherever C3 convertase activity % of the control is given: test concentration or dose not given here.

Binder	C3 convertase activity % of the control	C3 convertase activity IC50 [µg/mL]
B1	8 % of the control	1.21
B2	15 % of the control	0.442
B3	10 % of the control	0.74
B4	15 % of the control	0.618
B5	12 % of the control	1.09
B6	14 % of the control	0.671
